Where two headings read alike, the source gives them in different places. Bridge positions count the residues as written; N and C are the ends. Square brackets hold non-standard residues; d marks the D form. Ends that are not written are not given here. Pen = CC(C)(S)[C@H](N)C(=O)O
Key:
[1] = target: T1, soluble human FcRn (shFcRn) (human, UniProt P55899 24-297; P61769 21-119); experiment: IgG competition ELISA
T1 construct: Biotinylated for the ELISA, amine-coupled to a CM5 chip for SPR; also called biotinylated shFcRn
T1 sequence (P55899 24-297 limits assumed, chain 1 of 2): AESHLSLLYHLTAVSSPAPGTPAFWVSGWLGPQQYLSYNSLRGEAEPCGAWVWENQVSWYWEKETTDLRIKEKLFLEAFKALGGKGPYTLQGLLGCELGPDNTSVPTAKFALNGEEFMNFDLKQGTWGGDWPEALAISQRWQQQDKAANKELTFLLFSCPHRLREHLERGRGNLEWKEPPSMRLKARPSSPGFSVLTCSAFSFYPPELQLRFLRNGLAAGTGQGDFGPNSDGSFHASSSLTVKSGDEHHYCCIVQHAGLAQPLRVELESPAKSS
T1 sequence (P61769 21-119 limits assumed, chain 2 of 2): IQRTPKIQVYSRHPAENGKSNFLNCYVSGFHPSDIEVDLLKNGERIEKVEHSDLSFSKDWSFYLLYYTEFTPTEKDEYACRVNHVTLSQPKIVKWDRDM
Procedure: The wells were coated with 100 μl/well of 1 μg/ml biotinylated-shFcRn in Buffer A. The plate was sealed and incubated at 37° C. for 2 hours. Afterwards, the plate was washed with 200 μl/well of Buffer B (Buffer B: 100 mM MES pH 6, 150 mM NaCl, 0.5% BSA IgG-free (Jackson ImmunoResearch, West Grove, Pa.), 0.05% Tween-20). […] To allow for mixing, the plate was rocked for 2 minutes, sealed and incubated at 37° C. for 2 hours. […] The plate was covered, incubated for 30 minutes at room temperature and washed 4 times with 200 μl/well of ice-cold buffer B. SureBlue TMB substrate solution (100 μl/well, KPL, Gaithersburg, Md.) was added and the plate was allowed to incubate at room temperature until color developed, which took 5 to 10 minutes. Once color developed, 100 μl/well of TMB stop solution (KPL, Gaithersburg, Md.) was added and the absorbance was measured at 450 nm. The data was plotted as absorbance vs. peptide concentration to derive the inhibitory concentration 50% (IC₅₀) values.

[2] = target: T1, soluble human FcRn (shFcRn); experiment: SPR pH 6
Procedure: The following steps were performed to cross-link soluble human or cynomolgus FcRn to the dextran surface of a CM5 sensor chip (Biacore AB, Uppsala, Sweden) by an amine coupling reaction involving 1-ethyl-(3-dimethylaminopropyl)-carbodiimide hydrochloride (EDC) (Biacore AB, Uppsala, Sweden) and N-hydroxysuccinimide (NHS) (Biacore AB, Uppsala, Sweden) as recommended by Biacore (BIAapplications Handbook, version AB, section 4.2, Biacore AB, Uppsala, Sweden). […] Residual sites on the FcRn flow cell were blocked with 1 M ethanolamine hydrochloride pH 8.5 (Biacore AB, Uppsala, Sweden). A control flow cell was blocked with ethanolamine for reference subtraction. For analysis of the monomeric peptides, FcRn was coated to a final density of 4000-5000 response units (RU). For analysis of the peptide dimers, FcRn was coated to a density of 2000-2500 RU. All SPR measurements were performed using a BIACORE 3000 Instrument (Biacore AB Uppsala, Sweden). For measurements done at either pH 6 or pH 7.4, experiments were performed in 50 mM phosphate, 100 mM sodium chloride, 0.01% surfactant P20 (Biacore AB, Uppsala, Sweden).
Ten, 2-fold dilutions of the peptide were injected over the FcRn-CM5 chip at a rate of 20 μl/min for 2 min. The peptide was dissociated from the chip for 2.5 minutes with buffer. Any remaining peptide was removed from the chip with a 30 second injection of HBS-P buffer (Biacore AB, Uppsala, Sweden) at a rate of 30 μl/min. Sensorgrams were generated and analyzed using BiaEval software version 3.1 (Biacore AB, Uppsala, Sweden). The equilibrium RU observed for each injection was plotted against concentration. The equilibrium KD values were derived by analysis of the plots using the steady state affinity model included in the BiaEval software.

[3] = target: T1, soluble human FcRn (shFcRn); experiment: IgG competition ELISA; remark: listed apart in the source

QRFCTGXFGGLYPCNGP (Pen 4; Thz 7; disulfide 4-14; C-terminal amide) [Peptide No. 91] gave an IC50 [1] of 44 µM.

B1: Peptide No. 45 (peptide)
peptide: QRF[Pen]TGHFG[dY]LYPCNGP-NH2
modifications: disulfide 4-14; N-terminus assumed
SMILES: CC(C)C[C@@H]1NC(=O)[C@@H](Cc2ccc(O)cc2)NC(=O)CNC(=O)[C@H](Cc2ccccc2)NC(=O)[C@H](Cc2c[nH]cn2)NC(=O)CNC(=O)[C@H]([C@@H](C)O)NC(=O)[C@@H](NC(=O)[C@H](Cc2ccccc2)NC(=O)[C@H](CCCNC(=N)N)NC(=O)[C@@H](N)CCC(N)=O)C(C)(C)SSC[C@@H](C(=O)N[C@@H](CC(N)=O)C(=O)NCC(=O)N2CCC[C@H]2C(N)=O)NC(=O)[C@@H]2CCCN2C(=O)[C@H](Cc2ccc(O)cc2)NC1=O
Binder B1 has a Kd [2] of 1.5 µM.

B2: Peptide No. 48 (peptide)
peptide: QRF[Pen]TGHF[dP]GLYPCNGP-NH2
modifications: disulfide 4-14; N-terminus assumed
SMILES: CC(C)C[C@@H]1NC(=O)CNC(=O)[C@H]2CCCN2C(=O)[C@H](Cc2ccccc2)NC(=O)[C@H](Cc2c[nH]cn2)NC(=O)CNC(=O)[C@H]([C@@H](C)O)NC(=O)[C@@H](NC(=O)[C@H](Cc2ccccc2)NC(=O)[C@H](CCCNC(=N)N)NC(=O)[C@@H](N)CCC(N)=O)C(C)(C)SSC[C@@H](C(=O)N[C@@H](CC(N)=O)C(=O)NCC(=O)N2CCC[C@H]2C(N)=O)NC(=O)[C@@H]2CCCN2C(=O)[C@H](Cc2ccc(O)cc2)NC1=O
Work on B2 yielded an IC50 [3] of 5 µM.

B3: Peptide No. 150 (peptide)
peptide: QRF[Pen]TGHF[dF][dP]LYPCNGP-NH2
modifications: disulfide 4-14; N-terminus assumed
SMILES: CC(C)C[C@@H]1NC(=O)[C@H]2CCCN2C(=O)[C@@H](Cc2ccccc2)NC(=O)[C@H](Cc2ccccc2)NC(=O)[C@H](Cc2c[nH]cn2)NC(=O)CNC(=O)[C@H]([C@@H](C)O)NC(=O)[C@@H](NC(=O)[C@H](Cc2ccccc2)NC(=O)[C@H](CCCNC(=N)N)NC(=O)[C@@H](N)CCC(N)=O)C(C)(C)SSC[C@@H](C(=O)N[C@@H](CC(N)=O)C(=O)NCC(=O)N2CCC[C@H]2C(N)=O)NC(=O)[C@@H]2CCCN2C(=O)[C@H](Cc2ccc(O)cc2)NC1=O
For B3, the Kd [2] was 0.72 µM and the IC50 [3] was 5.9 µM.

B4: Peptide No. 152 (peptide)
peptide: QRF[Pen]TGHF[dP][dP]LYPCNGP-NH2
modifications: disulfide 4-14; N-terminus assumed
SMILES: CC(C)C[C@@H]1NC(=O)[C@H]2CCCN2C(=O)[C@H]2CCCN2C(=O)[C@H](Cc2ccccc2)NC(=O)[C@H](Cc2c[nH]cn2)NC(=O)CNC(=O)[C@H]([C@@H](C)O)NC(=O)[C@@H](NC(=O)[C@H](Cc2ccccc2)NC(=O)[C@H](CCCNC(=N)N)NC(=O)[C@@H](N)CCC(N)=O)C(C)(C)SSC[C@@H](C(=O)N[C@@H](CC(N)=O)C(=O)NCC(=O)N2CCC[C@H]2C(N)=O)NC(=O)[C@@H]2CCCN2C(=O)[C@H](Cc2ccc(O)cc2)NC1=O
B4 was tested, and the IC50 [3] was 21 µM.

B5: Peptide No. 52 (peptide)
peptide: QRF[Pen]TGHF[dF]GLYPCNGP-NH2
modifications: disulfide 4-14; N-terminus assumed
SMILES: CC(C)C[C@@H]1NC(=O)CNC(=O)[C@@H](Cc2ccccc2)NC(=O)[C@H](Cc2ccccc2)NC(=O)[C@H](Cc2c[nH]cn2)NC(=O)CNC(=O)[C@H]([C@@H](C)O)NC(=O)[C@@H](NC(=O)[C@H](Cc2ccccc2)NC(=O)[C@H](CCCNC(=N)N)NC(=O)[C@@H](N)CCC(N)=O)C(C)(C)SSC[C@@H](C(=O)N[C@@H](CC(N)=O)C(=O)NCC(=O)N2CCC[C@H]2C(N)=O)NC(=O)[C@@H]2CCCN2C(=O)[C@H](Cc2ccc(O)cc2)NC1=O
Work on B5 yielded a Kd [2] of 0.51 µM and an IC50 [3] of 2.8 µM.

B6: Peptide No. 50 (peptide)
peptide: QRF[Pen]TGHF[dH]GLYPCNGP-NH2
modifications: disulfide 4-14; N-terminus assumed
SMILES: CC(C)C[C@@H]1NC(=O)CNC(=O)[C@@H](Cc2c[nH]cn2)NC(=O)[C@H](Cc2ccccc2)NC(=O)[C@H](Cc2c[nH]cn2)NC(=O)CNC(=O)[C@H]([C@@H](C)O)NC(=O)[C@@H](NC(=O)[C@H](Cc2ccccc2)NC(=O)[C@H](CCCNC(=N)N)NC(=O)[C@@H](N)CCC(N)=O)C(C)(C)SSC[C@@H](C(=O)N[C@@H](CC(N)=O)C(=O)NCC(=O)N2CCC[C@H]2C(N)=O)NC(=O)[C@@H]2CCCN2C(=O)[C@H](Cc2ccc(O)cc2)NC1=O
B6 showed an IC50 [3] of 3.6 µM.

B7: Peptide No. 148 (peptide)
peptide: QRF[Pen]TGHF[dA][dA]LYPCNGP-NH2
modifications: disulfide 4-14; N-terminus assumed
SMILES: CC(C)C[C@@H]1NC(=O)[C@@H](C)NC(=O)[C@@H](C)NC(=O)[C@H](Cc2ccccc2)NC(=O)[C@H](Cc2c[nH]cn2)NC(=O)CNC(=O)[C@H]([C@@H](C)O)NC(=O)[C@@H](NC(=O)[C@H](Cc2ccccc2)NC(=O)[C@H](CCCNC(=N)N)NC(=O)[C@@H](N)CCC(N)=O)C(C)(C)SSC[C@@H](C(=O)N[C@@H](CC(N)=O)C(=O)NCC(=O)N2CCC[C@H]2C(N)=O)NC(=O)[C@@H]2CCCN2C(=O)[C@H](Cc2ccc(O)cc2)NC1=O
For B7, the Kd [2] was 0.45 µM.

B8: Peptide No. 49 (peptide)
peptide: QRF[Pen]TGHF[dR]GLYPCNGP-NH2
modifications: disulfide 4-14; N-terminus assumed
SMILES: CC(C)C[C@@H]1NC(=O)CNC(=O)[C@@H](CCCNC(=N)N)NC(=O)[C@H](Cc2ccccc2)NC(=O)[C@H](Cc2c[nH]cn2)NC(=O)CNC(=O)[C@H]([C@@H](C)O)NC(=O)[C@@H](NC(=O)[C@H](Cc2ccccc2)NC(=O)[C@H](CCCNC(=N)N)NC(=O)[C@@H](N)CCC(N)=O)C(C)(C)SSC[C@@H](C(=O)N[C@@H](CC(N)=O)C(=O)NCC(=O)N2CCC[C@H]2C(N)=O)NC(=O)[C@@H]2CCCN2C(=O)[C@H](Cc2ccc(O)cc2)NC1=O
B8 gave an IC50 [3] of 4.1 µM.

B9: Peptide No. 203 (peptide)
peptide: QRF[Pen]TGHF[dF]PLYPCNGP-NH2
modifications: disulfide 4-14; N-terminus assumed
SMILES: CC(C)C[C@@H]1NC(=O)[C@@H]2CCCN2C(=O)[C@@H](Cc2ccccc2)NC(=O)[C@H](Cc2ccccc2)NC(=O)[C@H](Cc2c[nH]cn2)NC(=O)CNC(=O)[C@H]([C@@H](C)O)NC(=O)[C@@H](NC(=O)[C@H](Cc2ccccc2)NC(=O)[C@H](CCCNC(=N)N)NC(=O)[C@@H](N)CCC(N)=O)C(C)(C)SSC[C@@H](C(=O)N[C@@H](CC(N)=O)C(=O)NCC(=O)N2CCC[C@H]2C(N)=O)NC(=O)[C@@H]2CCCN2C(=O)[C@H](Cc2ccc(O)cc2)NC1=O
Binder B9 has a Kd [2] of 3.8 µM.

B10: Peptide No. 271 (peptide)
peptide: RFCTGXFGGLYPC
modifications: Pen 3; triazolylAla 6 (1,2,3-triazole side chain); Sar 9; NMeL 10; disulfide 3-13; C-terminal amide
In the case of B10, the IC50 [1] is reported as 5.7 µM.

Binder RFCTGXFGGLYPC (Pen 3; PropargylGly 6; Sar 9; NMeLeu 10; disulfide 3-13; C-terminal amide) [Peptide No. 261] has an IC50 [1] of 160 µM.

B11: Peptide No. 269 (peptide)
peptide: RFCTGXFGGLYPC
modifications: Pen 3; Thz(Me) 6 (N-methyl-thiazolium); Sar 9; NMeL 10; disulfide 3-13; C-terminal CONH2
Work on B11 yielded an IC50 [1] of 2.4 µM.

Reference: US20110059889A1 (SYNTONIX PHARMACEUTICALS, published 2011)
